Reference: the RNAGym collection of RNA variant scans (doi:10.1073/pnas.2313332121)
Variants at the floor of the assay were thinned out.

B1: TPR 5TU (parent)
chain: GGAUCUUCUCGAUCUAACAAAAAAGACAAAUCUGCCACAAAGCUUGAGAGCAUCUUCGGAUGCAGAGGCGGCAGCCUUCGGUGGCGCGAUAGCGCCAACGUUCUCAACUAUGACACGCAAAACGCGUGCUCCGUUGAAUGGAGUUUAUCAUG

Variants of: B1
Assay: polymerase ribozyme fitness, log enrichment relative to wild type (log ratio); higher = more active; in vitro selection for triplet polymerase activity
Summary of the method: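 Only genotypes with ≥10 input reads and ≥1 read per output were kept after Illumina sequencing of input and output libraries. These libraries were PCR-built, transcribed mutants of each subunit of a heterodimeric triplet polymerase ribozyme, each put through one triplicate in vitro selection round with frozen incubation at −7 °C, gel excision of extended constructs, streptavidin-bead capture and RT-PCR. Fitness is a logarithmic ratio of genotype enrichment to wild-type enrichment, from inverse-variance-weighted replicate averages, with the logarithm in base 2.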

C8U U9G G70A C76A C87G A89C and C10A C27G U77C G83A cannot be ordered by “polymerase ribozyme fitness (log ratio)” value: at most -4.2 for the first, at most -4.2 for the second.

U9A G34A C57A C85A A91U and C10A A23U C35G C95G G128A cannot be ordered by “polymerase ribozyme fitness (log ratio)” value: at most -4.2 for the first, at most -4.2 for the second.

U9C U44A G46C A47G C85U A121G and U9C G71A C95U U151C cannot be ordered by “polymerase ribozyme fitness (log ratio)” value: at most -4.2 for the first, at most -4.2 for the second.

Going from C10A G48C U82G A97U to C8U G83U A97G A142U, the “polymerase ribozyme fitness (log ratio)” value rises from at most -4.2 to -4.17.

U9A A22G G34A A106G C116U A120U and C8U C75A G86U A91U A122G G136A cannot be ordered by “polymerase ribozyme fitness (log ratio)” value: at most -4.2 for the first, at most -4.2 for the second.

U9C A16G U44G A49G A64G C105G G124A and C10A C54A cannot be ordered by “polymerase ribozyme fitness (log ratio)” value: at most -4.2 for the first, at most -4.2 for the second.

C10A A12U G80C G94A and U9C U56A G83A C87U cannot be ordered by “polymerase ribozyme fitness (log ratio)” value: at most -4.2 for the first, at most -4.2 for the second.

C10A A28G U56G C85A and U9A A16G U45A C57A C75G G83U G92A cannot be ordered by “polymerase ribozyme fitness (log ratio)” value: at most -4.2 for the first, at most -4.2 for the second.

U9A U55A C85U G94A C114U G140C and U9G A23U G58A G59U C79A G81U C85A A120C U139C cannot be ordered by “polymerase ribozyme fitness (log ratio)” value: at most -4.2 for the first, at most -4.2 for the second.

C10A C76G G81A G86U A137U and U9C A17U A30G G42C C51A C87U cannot be ordered by “polymerase ribozyme fitness (log ratio)” value: at most -4.2 for the first, at most -4.2 for the second.

U9A A23C C32U C72G G80A G81A and C10A A41G C103A A110G cannot be ordered by “polymerase ribozyme fitness (log ratio)” value: at most -4.2 for the first, at most -4.2 for the second.

Compared with U9G G88C C99A A119U, U9A A91C C116G U148A is higher in “polymerase ribozyme fitness (log ratio)” value: at most -4.2 for the first, -3.93 for the second.

C8U G81A G88A and U9A A24U A121U A122U G141A cannot be ordered by “polymerase ribozyme fitness (log ratio)” value: at most -4.2 for the first, at most -4.2 for the second.

U9C A26G U55A A122U and U9A A39U G48A G84U C99A G117U cannot be ordered by “polymerase ribozyme fitness (log ratio)” value: at most -4.2 for the first, at most -4.2 for the second.

U9C C10U A16U A19C C85G G94C C105U A106U and U9G A52G C72G C96U C105A A115G U127C G133U cannot be ordered by “polymerase ribozyme fitness (log ratio)” value: at most -4.2 for the first, at most -4.2 for the second.

U9A C18G A52G G58C A138G and C10A C51U C93U U111G cannot be ordered by “polymerase ribozyme fitness (log ratio)” value: at most -4.2 for the first, at most -4.2 for the second.

C8U C38U G48A A60C C72G C96A C99U C114G U139G U148G and U9C A49G A106G C116U G136A A137C G143A U144C U148G cannot be ordered by “polymerase ribozyme fitness (log ratio)” value: at most -4.2 for the first, at most -4.2 for the second.

Going from U9A A47C to C8U G92U, the “polymerase ribozyme fitness (log ratio)” value rises from -4.13 to -3.35.

C10G A41C A73U U134A and U9G G74A G84A A107G cannot be ordered by “polymerase ribozyme fitness (log ratio)” value: at most -4.2 for the first, at most -4.2 for the second.

Going from C10A G34U C57U C76U C95G C116G to U9G U56A, the “polymerase ribozyme fitness (log ratio)” value rises from at most -4.2 to -4.07.

U9C C14G and C10A A28U G58A C96U A122G G124C cannot be ordered by “polymerase ribozyme fitness (log ratio)” value: at most -4.2 for the first, at most -4.2 for the second.

Compared with C10G C35U, C10A A20G A41G G46A A47C C57U C85G G133U is lower in “polymerase ribozyme fitness (log ratio)” value: -3.4 for the first, at most -4.2 for the second.

C10G C38A G88A A97U and C10G C18U C85G G133U A138G cannot be ordered by “polymerase ribozyme fitness (log ratio)” value: at most -4.2 for the first, at most -4.2 for the second.

Going from U9A A12C A23G G42C C51A A120C A121U to C8U C85G, the “polymerase ribozyme fitness (log ratio)” value rises from at most -4.2 to -3.44.

C10G C18G G42U A49C G50A G74A G133C G143A and U9G A29G A47C U53A U55G G124C G133C G143A cannot be ordered by “polymerase ribozyme fitness (log ratio)” value: at most -4.2 for the first, at most -4.2 for the second.

U9G G92A C116U C125U U134C and U9A C32A U33G A49U C51U U53A C54U G84U C103A C108G C118G C149U cannot be ordered by “polymerase ribozyme fitness (log ratio)” value: at most -4.2 for the first, at most -4.2 for the second.

First: C10G A19U G46A C85A C105U
Second: C8U U13C A22G C93U G126A
The “polymerase ribozyme fitness (log ratio)” value of the first is lower: at most -4.2 for the first, -1.08 for the second.

U9C A37G G42C A73U G92C C103U and U9A C14A A23U A30C C36A C95U A110U cannot be ordered by “polymerase ribozyme fitness (log ratio)” value: at most -4.2 for the first, at most -4.2 for the second.

U9A A21U U55A C85G G112C U145A and C10A U33G A60G C75A A106U G117U A137C U144A cannot be ordered by “polymerase ribozyme fitness (log ratio)” value: at most -4.2 for the first, at most -4.2 for the second.

First: C10A A16U U33A A121U G141C
Second: U9A C32A U55G G88U U109A
The “polymerase ribozyme fitness (log ratio)” value of the first is higher: -4.19 for the first, at most -4.2 for the second.

First: C10A A20G A23C A24U A26G C85G A91G G100U A115G
Second: U9A C93A
The “polymerase ribozyme fitness (log ratio)” value of the first is lower: at most -4.2 for the first, -3.87 for the second.

C10G A16U A49C C51G A52U U56A C103G U146A and U9A U15C G48A G50C C96A G133C cannot be ordered by “polymerase ribozyme fitness (log ratio)” value: at most -4.2 for the first, at most -4.2 for the second.

Compared with C10A C32G U44G C57U U82G G83A, C8U U55A is higher in “polymerase ribozyme fitness (log ratio)” value: at most -4.2 for the first, -2.51 for the second.

U9G A21C C35U C85G and U9C C38U C51U A52G G74C C85G G143C U145A cannot be ordered by “polymerase ribozyme fitness (log ratio)” value: at most -4.2 for the first, at most -4.2 for the second.

Going from U9C A23U A24G C38G A89G A91U to C10A G92A, the “polymerase ribozyme fitness (log ratio)” value rises from at most -4.2 to -4.08.

U9C A22U U53G C79U and C8U C43U G48C U55A G92C cannot be ordered by “polymerase ribozyme fitness (log ratio)” value: at most -4.2 for the first, at most -4.2 for the second.

Going from U9G C35A A39G C87A C125U G143A U151A to C10A C35U A97U, the “polymerase ribozyme fitness (log ratio)” value falls from -3.88 to at most -4.2.

First: U9G A12C A16U U31A G62A G71A G80C C87U C108U
Second: C10A A22U A24G A40C A52C C57U G70A C93U A147C
The “polymerase ribozyme fitness (log ratio)” value of the first is lower: at most -4.2 for the first, -4.05 for the second.

U9G C10G C87G C93U G124C and U9A U15C C35U G71A C72U U77G C87A A119U G124C cannot be ordered by “polymerase ribozyme fitness (log ratio)” value: at most -4.2 for the first, at most -4.2 for the second.

C10G A17U A37C G59C C85A and C8U U15G A17G A30G U44G C76A C87A cannot be ordered by “polymerase ribozyme fitness (log ratio)” value: at most -4.2 for the first, at most -4.2 for the second.

C10A A41U C51G C87A and U9A A26G A66C A122U A137U G143C U145A cannot be ordered by “polymerase ribozyme fitness (log ratio)” value: at most -4.2 for the first, at most -4.2 for the second.

U9G C69A U102C and U9C A21U G48A A91U C99U cannot be ordered by “polymerase ribozyme fitness (log ratio)” value: at most -4.2 for the first, at most -4.2 for the second.
